# Experimental data published in US20110002937A1 (THOMAS JEFFERSON UNIVERSITY, published 2011).
# Biological target: recombinant 50 kD C-terminal BoNT/A domain (HC50A) (Clostridium botulinum, UniProt P0DPI0 871-1296)
# Sequence (P0DPI0 871-1296 limits assumed): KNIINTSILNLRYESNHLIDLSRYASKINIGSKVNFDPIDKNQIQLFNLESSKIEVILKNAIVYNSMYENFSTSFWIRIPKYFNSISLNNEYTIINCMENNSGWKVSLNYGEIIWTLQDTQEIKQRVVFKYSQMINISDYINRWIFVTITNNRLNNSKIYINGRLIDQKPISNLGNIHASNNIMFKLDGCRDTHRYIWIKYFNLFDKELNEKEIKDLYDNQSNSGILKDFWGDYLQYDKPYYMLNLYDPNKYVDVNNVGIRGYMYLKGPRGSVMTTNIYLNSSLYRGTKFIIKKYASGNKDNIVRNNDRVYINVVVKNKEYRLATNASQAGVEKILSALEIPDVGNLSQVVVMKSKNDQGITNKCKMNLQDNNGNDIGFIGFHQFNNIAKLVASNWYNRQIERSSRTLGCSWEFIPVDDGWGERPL
binder,measurement,value
"6A antibody (human monoclonal IgG secreted by hybridoma 6A, ATCC accession no. PTA-8870) (antibody, V domains shown) VH: EVQLVESGGGVVKPGGSLRLSCTAFGFTFEDFGMHWVRQAPGKGLEWVSLVSGEGGSKYYADSVKGRFTISRDNKKHSLYLHMNSLKTEDTALYYCAKDVWTYHYDSSGYQYYYGMDVWGQGTTVTVSS VL: QEPAVSVALGQTVRITCQGDSLRSYSASWYQQRPGQAPLFVMYGKDKRPSGIPDRFSGSASGNTASLTITGAQAEDEADYYCNCRDSSNQYWIFGGGTKVTVL",Kd,6.9 pM
same,kon,440000 M⁻¹ s⁻¹
